In patent publication US20210054072A1 (ALLAKOS, published 2021):

How the values were obtained:
Siglec-7-ECD-Fc = target: T1, Siglec-7-ECD-Fc (human, UniProt Q9Y286 19-353); assay: ligand blocking assay, flow cytometry: antibody (40 nM to 40 pM) mixed with 10 nM Siglec-7-ECD-Fc; blocked: binding of Siglec-7-ECD-Fc to its ligands on A375 melanoma cells
T1 construct: also called recombinant Siglec-7-Fc; Siglec-7-ECD-huFc; not shown: human Fc (huFc)
Protocol: Recombinant Siglec-7-Fc was added to A375 cells in the presence of anti-Siglec-7 antibodies at increasing concentrations and binding of the complex was detected on the cell surface.
Human melanoma cell line A375, which expresses high level of ligands for Siglec-7, was used to determine the blocking activity of anti-Siglec-7 antibodies in a cell based assay. Two-fold serial dilutions of anti-Siglec-7 antibodies (40 nM to 40 pM) were combined with 10 nM Siglec-7-ECD-Fc in FACS buffer (PBS/2% BSA) and incubated on ice for 30 minutes. 2.5×10e4 A375 cells per well were added to round bottom 96-well tissue culture plates in FACS buffer, plates were centrifuged at 400 g for 2 min, supernatant was removed and cells were re-suspended in 100 ul of the antibody-Siglec-7 complexes. After a 1 hour incubation on ice, cells were washed twice and incubated for 30 minutes with goat anti-human F(ab′)2 fragment conjugated to AF647 (Jackson IR labs) at 1 ug/ml in FACS buffer. After two more washes, cells were fixed in PBS/2% PFA and acquired on a Novocyte flow cytometer (ACEA biosciences). IC₅₀ values for blocking were determined based on plotting mean fluorescence in the APC channel and analysis using Prism Graphpad software.

Siglec-7-ECD [1] = target: T2, Siglec-7-ECD (human, UniProt Q9Y286 19-353); assay: bio-layer interferometry (ForteBio), 25 C, antibody captured on the sensor, Siglec-7-ECD as analyte 50 to 1.56 nM, 1:1 global fit; the same value stands beside the sensorgrams ('QA79 KD=706pM', four traces up to about 0.16 nm, visible dissociation to 780 s)
T2 construct: also called p75; AIRM

Siglec-7-ECD [2] = target: T2, Siglec-7-ECD; assay: bio-layer interferometry (ForteBio), 25 C, antibody captured on the sensor, Siglec-7-ECD as analyte 50 to 1.56 nM, 1:1 global fit
Protocol: Antibody binding analysis was carried out by bio-layer interferometry (ForteBio). […] Antibodies were captured on anti-mouse kinetic sensors at 0.5 ug/mL; Siglec-7-ECD was used as analyte and diluted in assay buffer from 50 nM to 1.56 nM with 2× dilutions. Two-minute associations were conducted, followed by 10-minute dissociations. Results were determined relative to a control empty reference AHC sensor, and analyzed using ForteBio analysis software with 1:1 global fit parameters.

[3] = target: Siglec-7 on primary human NK cells (human, UniProt Q9Y286 19-467); assay: cell-based or functional assay
Sequence of Siglec-7 on primary human NK cells (Q9Y286 19-467 limits assumed): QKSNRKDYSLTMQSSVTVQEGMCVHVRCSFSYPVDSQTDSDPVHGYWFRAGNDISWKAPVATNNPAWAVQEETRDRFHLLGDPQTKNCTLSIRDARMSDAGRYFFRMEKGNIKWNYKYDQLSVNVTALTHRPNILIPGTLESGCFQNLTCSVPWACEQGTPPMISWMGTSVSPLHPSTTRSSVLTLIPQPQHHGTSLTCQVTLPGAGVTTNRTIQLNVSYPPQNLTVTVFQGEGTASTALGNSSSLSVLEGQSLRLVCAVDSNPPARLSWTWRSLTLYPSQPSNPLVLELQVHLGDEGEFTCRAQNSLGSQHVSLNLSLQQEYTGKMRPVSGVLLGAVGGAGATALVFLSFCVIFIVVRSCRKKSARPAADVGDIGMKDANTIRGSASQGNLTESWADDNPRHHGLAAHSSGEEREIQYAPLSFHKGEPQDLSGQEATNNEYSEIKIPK

T2 sequence (Q9Y286 19-353 limits assumed): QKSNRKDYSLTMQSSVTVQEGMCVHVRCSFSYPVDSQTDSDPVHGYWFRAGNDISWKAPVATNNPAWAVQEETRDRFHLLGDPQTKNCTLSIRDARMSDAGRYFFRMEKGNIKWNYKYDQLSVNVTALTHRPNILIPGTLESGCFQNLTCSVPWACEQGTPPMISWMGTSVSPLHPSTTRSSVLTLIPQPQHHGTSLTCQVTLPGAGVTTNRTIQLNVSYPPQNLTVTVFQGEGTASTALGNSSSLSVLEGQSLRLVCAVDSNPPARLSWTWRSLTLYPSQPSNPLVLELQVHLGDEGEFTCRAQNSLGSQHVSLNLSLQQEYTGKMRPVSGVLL
T1 sequence (Q9Y286 19-353): as the sequence (Q9Y286 19-353 limits assumed) above

| Molecule | IC50 (Siglec-7-ECD-Fc) | Kd (Siglec-7-ECD [1]) | Kd (Siglec-7-ECD [2]) | IC50 (read off the curve), internalization of Siglec-7 [3] |
| --- | --- | --- | --- | --- |
| anti-Siglec-7 antibody S7.7 | 4.26 nM | – | 0.422 nM | – |
| monoclonal antibody 3F1 (antibody, V domains shown) VH: EFQLQQSGPEMVKPGASVKMSCKASGDSFTDYKINWVKQNNGKSLEWIGVINPDSGTTSYNQIFEGKATLTVDQSSSTAYMQVNRLTSEDSAVYYCTTWDDYSFYAMDYWGQGTSVTVSS VL: DVLMTQTPLSLPVSLGDQASISCRSSQNIVHSNGNTYLEWFLQKPGQSPKLLIYKVSNRFSGVPDRFSGSGSGTDFTLKISRVEAEDLGVYYCFQGSHIPWTFGGGTKLEIK | – | – | – | ~0.01 nM |
| 5215-2 (antibody, V domains shown, anti-Siglec-7 monoclonal antibody of the panel) VH: DVQLQESGPGLVKPSQSLSLTCTVTGYSITSDYVWTWIRQFPGNKLEWMGYITYSDSTNYNPSLKSRLSITRDTSKNQFFLQLSSVTTEDTATYFCARSLTGNYFDYWGQGTTLTVSS VL: VIVLTQSPASLEVSLGQRATISCRASQTVRISSYSYMNWYQQKPGQPPKLLIKYASNLESGVPARFSGSGSGTDFTLNIHPVEEEDTATYYCQHSWKIPTFGGGTKLEIK | 4.12 nM | – | 0.149 nM | – |
| 5215-13 (antibody, V domains shown, anti-Siglec-7 monoclonal antibody of the panel) VH: EVQLQQSGAELVKPGASVKLSCTVSGFNFKDTYIHWVKQRPEQGLEWIGRIDPANGNTKYASKFQDKATITADTSSNTVYMQLSSLTSEDTAVYYCTRGWDGYYFDCWGQGTTLTVSS VL: DIVLTQSPASLVVSLGLRATISCRASQSVSTSSHSYLHWYQQKPGQPPKLLIKYASNLASGVPARFSGSGSGADFTLNIHPVEEEDTATYYCQHSWEIPYTFGGGTKLEIK | 1.32 nM | – | 0.99 nM | – |

Continued, values first:

| IC50 (Siglec-7-ECD-Fc) | Kd (Siglec-7-ECD [1]) | Kd (Siglec-7-ECD [2]) | IC50 (read off the curve), internalization of Siglec-7 [3] | Molecule |
| --- | --- | --- | --- | --- |
| 7.49 nM | 0.706 nM | – | – | anti-Siglec-7 antibody QA79 |
| – | – | 0.086 nM | – | anti-Siglec-7 antibody Z176 |
| – | – | – | ~0.01 nM | monoclonal antibody 8A2 (antibody, V domains shown) VH: QVQLKESGPGLVAPSQSLSITCTVSGFSLTTYGVDWVRQFPGKGLEWLGVIWGGGNTNYNSALMSRLSISKDTSKSQVFLKMNSLQTDDTAMYYCAKHKGTSHAMEYWGQGTSVTVSS VL: QIVLTQSPAIMSASPGEKVTMTCSASSRVIFMYWYQQKPGSSPRLLIYDTSNLASGVPVRFSGGGSGTSYSLTISRMEAEDAATYYCQQWSSYPPTFGAGTKLELK |
| – | – | – | ~0.01 nM | monoclonal antibody 16H11 (antibody, V domains shown) VH: QVQLHQSGAELVKPGASVKISCKGSGYDFSNFWMNWVKQRPGKGLEWIGQIYPGDGEIKYNGKFKGKATLTADESSSTAYIHLSSLTSEDSAVYFCARDDYLRAMDYWGQGTSVTVSS VL: DIQMTQSPASLSASVGETVTITCRASGNIHNYLAWFQQKQGKSPHFLVYSAKALADGVPSRFSGSGSGTQYSLKINSLQPEDFGTYYCQHFWSSPYTFGGGTKLEIK |
| 5.33 nM | – | 0.001 nM | – | 5215-9 (antibody, V domains shown, anti-Siglec-7 monoclonal antibody of the panel) VH: EVQLQQSGAELVKSGASVKLSCTASGFNIKDTYMHWVKQRPEKGLEWIGWIDPADGHTKYDPKFQGKATITADTSSNTAYLHLSSLTSEDAAVYYCPRGGSSPYFDYWGQGTTLTVSS VL: DIVLTQSPASLTISLGQRATISCRASQSVSTSTYSYIHWYQQKPGQPPKLLIKYASNLASGVPARFSGSGSGTDFSLSIHPMEEEDTATYYCQHSWKIPFTFGSGTKLEIK |
